Data reported in patent US20260191982A1 (GENOME, published 2026).
“And” between values parts separate entries of the source, which are not always exact repeats. Equal values may be shown once. One block for each binder: values may come before it.

How the values were obtained:
[1] = molecular target: T1, human BCAM overexpressed on HEK293FT cells (HEK293FT/hBCAM) (human, UniProt P50895 32-628); test: flow cytometry on HEK293FT cells overexpressing human BCAM, geometric MFI
T1 construct: whole, on cells; also called HEK293FT/hBCAM cells; BCAM-overexpressing HEK293 cells
T1 sequence (looked up): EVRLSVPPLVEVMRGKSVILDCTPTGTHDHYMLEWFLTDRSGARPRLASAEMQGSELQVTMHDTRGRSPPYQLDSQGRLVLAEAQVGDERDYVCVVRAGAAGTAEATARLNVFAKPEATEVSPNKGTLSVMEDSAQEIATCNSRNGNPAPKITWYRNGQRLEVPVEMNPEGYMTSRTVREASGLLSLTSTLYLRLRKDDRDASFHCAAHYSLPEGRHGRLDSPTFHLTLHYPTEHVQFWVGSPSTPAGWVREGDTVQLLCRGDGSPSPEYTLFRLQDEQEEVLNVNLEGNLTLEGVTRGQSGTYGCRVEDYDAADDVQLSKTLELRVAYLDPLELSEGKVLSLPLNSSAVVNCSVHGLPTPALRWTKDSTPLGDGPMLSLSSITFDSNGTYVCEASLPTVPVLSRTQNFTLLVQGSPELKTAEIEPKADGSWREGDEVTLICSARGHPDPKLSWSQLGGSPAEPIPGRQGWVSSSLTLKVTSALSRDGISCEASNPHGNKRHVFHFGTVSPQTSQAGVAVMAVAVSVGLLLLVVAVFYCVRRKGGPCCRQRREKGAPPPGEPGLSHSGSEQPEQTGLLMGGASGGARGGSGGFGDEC
Procedure: The binding affinity of Ab1, Ab2 and Ab3 to HEK293FT cells overexpressing human BCAM (HEK293FT/hBCAM) was evaluated by flow cytometry analysis. HEK293FT cells (3.0×10⁶) were seeded to 10 cm cell culture dish and incubated for […], 5% CO₂ incubator. The next day, jetPRIME transfection reagent (20 μL) and human BCAM expression plasmid (10 μg) prepared in jetPRIME transfection buffer (200 μL) were mixed and incubated for 10 min at room temperature. The mixture was added to HEK293FT cells drop-wisely and incubated for 4 hr at 37° C., 5% CO₂ incubator. After 4 hr, the mixture from HEK293FT cells was replaced with fresh complete media and incubated for overnight. HEK293FT/hBCAM cells prepared at 1.0×10⁵ cells/100 μL in FACS buffer. The 100 μL of Ab1, Ab2 (3 pM~56 nM, serial 3-fold dilution, 10 points) and Ab3 (1.524 pM~30 nM, serial 3-fold dilution, 10 points), and HG4K IgG4 (SinoBiological, USA) and HG1K IgG1 (SinoBiological, USA) diluted with FACS buffer was added to cells and incubated for 30 min at 4° C. The cells were washed twice with 200 μL of FACS buffer, and then 1 μg/mL of secondary antibody (AlexaFlour® 647 AffiniPure Goat Anti-Human IgG (H+L), JacksonImmunoResearch, USA) diluted with FACS buffer was added to cells and incubated for 30 min at 4° C. in the dark. After washing twice with 200 μL of FACS buffer, and 7-AAD diluted with FACS buffer (1:100) was added to cells and transferred to FACS tubes for analysis. At least 1.0×10⁴ live cells per sample were read using FACSCantoII (BD, USA). The geometric mean fluorescence intensity for assessing the Ab1, Ab2 and Ab3 binding to hBCAM on HEK293FT/hBCAM cells was measured. The graphs were generated as sigmoidal dose-response curves and EC₅₀ values were determined by nonlinear regression with a four-parameter logistic equation using GraphPad Prism software (GraphPad Software Inc., San Diego, CA, USA). […] See FIGS. 20a and 20b and Table 1D and 1E.

[2] = molecular target: T2, human BCAM recombinant protein (SinoBiological, USA) (human, UniProt P50895 32-547); test: indirect ELISA, human BCAM coated on plate at 25 nM, anti-human IgG Fc-HRP detection
T2 construct: Bought protein; In the sandwich ELISA it was captured by a coated anti-His antibody, which implies a His tag; also called recombinant human BCAM protein; basal cell adhesion molecule
T2 sequence (looked up): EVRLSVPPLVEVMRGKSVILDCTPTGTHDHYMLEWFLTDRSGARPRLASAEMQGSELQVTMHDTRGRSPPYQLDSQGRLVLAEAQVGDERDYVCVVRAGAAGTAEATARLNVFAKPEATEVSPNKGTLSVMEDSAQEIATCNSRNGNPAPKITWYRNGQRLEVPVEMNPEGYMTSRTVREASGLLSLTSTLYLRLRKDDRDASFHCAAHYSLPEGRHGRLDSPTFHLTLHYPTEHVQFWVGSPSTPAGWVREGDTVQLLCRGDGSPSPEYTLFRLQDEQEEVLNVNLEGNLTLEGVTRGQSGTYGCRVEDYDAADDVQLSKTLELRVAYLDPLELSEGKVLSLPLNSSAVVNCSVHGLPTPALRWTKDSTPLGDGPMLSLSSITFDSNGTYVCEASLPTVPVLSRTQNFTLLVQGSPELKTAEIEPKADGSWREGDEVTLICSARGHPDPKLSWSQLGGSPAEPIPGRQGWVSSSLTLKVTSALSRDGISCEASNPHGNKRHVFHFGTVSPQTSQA
Procedure: The binding affinity of Ab1 and Ab2 to human BCAM recombinant protein was evaluated using an indirect ELISA (Enzyme-Linked Immunosorbent Assay) method. Human BCAM (SinoBiological, USA) diluted in PBS to 25 nM, and 50 μL of prepared proteins was added to 96-well half plate (Costar, USA) and incubated overnight at 4° C. Next day, solution containing human BCAM was removed, and the plate was washed 3 times with 150 μL of PBS-T (0.1% Tween-20 in PBS). The plate coated with human BCAM was blocked with 150 μL of 3% BSA blocking buffer for 1 hr at 37° C. Blocking buffer was removed, and 50 μL of Ab1 and Ab2 (6 pM~1 μM, serial 3-fold dilution, 12 points), and HG4K IgG4 (SinoBiological, USA) and HG1K IgG1 (SinoBiological, USA) diluted with blocking buffer was added to each well and incubated for 2 hr at 37° C. The plate was washed 3 times with 150 μL of PBS-T, and secondary antibody (HRP-conjugated anti-human IgG Fc antibody; ThermoFisher Scientific, USA) diluted with blocking buffer (1:100,000) was added to each well and incubated for 1 hr at 37° C. […] The absorbance (Optical density at 450 nm, OD₄₅₀) was measured at 450 nm using Synergy H1 (BioTek, Winooski, VT). The graphs were generated as sigmoidal dose-response curves and EC₅₀ values were determined by nonlinear regression with a four-parameter logistic equation using GraphPad Prism software (GraphPad Software Inc., San Diego, CA, USA).

[3] = molecular target: T2, human BCAM recombinant protein …; test: sandwich ELISA, human BCAM captured by coated anti-His antibody, anti-human IgG Fc-HRP detection
Procedure: The binding affinity of Ab1 and Ab3 to human BCAM recombinant protein was evaluated using sandwich ELISA (Enzyme-Linked Immunosorbent Assay) method. Anti-His antibody (Biolegend, USA) diluted in PBS to 4 μg/mL was added to 96-well plate (ThermoFisher Scientific, USA) and incubated overnight at 4° C. Next day, solution containing anti-his antibody was removed, and the plate was washed 3 times with 300 μL of PBS-T (0.1% Tween-20 in PBS). The plate coated with anti-his antibody was blocked with 300 μL of 3% skim milk blocking buffer for 1 hr at room temperature. Human BCAM (SinoBiological, USA) diluted in blocking buffer to 25 nM, and 100 μL of prepared proteins was added to 96-well plate and incubated for 1 hr at room temperature. The plate was washed 3 times with 300 μL of PBS-T, and 100 μL of Ab1 and Ab3 (6.4 pM~500 nM, serial 5-fold dilution, 8 points) diluted with blocking buffer was added to each well and incubated for 1 hr at room temperature. […] The absorbance (Optical density at […]) was measured at 450 nm using Synergy H1 (BioTek, Winooski, VT). The graphs were generated as sigmoidal dose-response curves and EC₅₀ values were determined by nonlinear regression with a three-parameter logistic equation using GraphPad Prism software (GraphPad Software Inc., San Diego, CA, USA).

EC50 [1]: 0.184 nM and 0.027 µg/mL | EC50 [2]: 112 pM | EC50 [3]: 1.28 nM and 0.192 µg/mL
B1: Ab1 (anti-BCAM antibody, human IgG4 S228P isotype) (antibody)
heavy: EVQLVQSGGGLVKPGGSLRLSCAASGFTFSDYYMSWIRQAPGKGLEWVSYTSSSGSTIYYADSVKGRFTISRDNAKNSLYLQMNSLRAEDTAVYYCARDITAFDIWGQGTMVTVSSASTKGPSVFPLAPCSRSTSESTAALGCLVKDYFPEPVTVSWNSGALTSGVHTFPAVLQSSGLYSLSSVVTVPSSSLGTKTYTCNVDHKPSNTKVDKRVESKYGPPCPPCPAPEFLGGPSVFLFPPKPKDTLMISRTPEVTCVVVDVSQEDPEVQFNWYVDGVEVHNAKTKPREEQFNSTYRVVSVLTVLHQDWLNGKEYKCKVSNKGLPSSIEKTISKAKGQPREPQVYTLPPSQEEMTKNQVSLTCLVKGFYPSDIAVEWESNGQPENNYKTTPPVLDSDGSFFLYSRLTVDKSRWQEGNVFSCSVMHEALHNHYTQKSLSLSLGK
light: LPVLTQPPSASGSPGQSVTISCTGTSSDVGGYNYVSWYQQHPGKAPKLMIYEVNKRPSGVPDRFSGSKSGNTASLTVSGLQAEDEADYYCCSYAGSNNYVFGTGTKVTVLGQPKAAPSVTLFPPSSEELQANKATLVCLISDFYPGAVTVAWKADSSPVKAGVETTTPSKQSNNKYAASSYLSLTPEQWKSHRSYSCQVTHEGSTVEKTVAPTECS
notes: human IgG4 S228P isotype, lambda light chain; expressed in ExpiCHO-S cells

EC50 [1]: 0.232 nM and 0.034 µg/mL | EC50 [2]: 78 pM
B2: Ab2 (anti-BCAM antibody, human IgG1 isotype) (antibody)
heavy: not shown
light: B1 light
notes: human IgG1 isotype

EC50 [1]: 0.167 nM and 0.025 µg/mL | EC50 [3]: 1.31 nM and 0.197 µg/mL
B3: Ab3 (anti-BCAM antibody, human IgG1 LALA isotype) (antibody)
heavy: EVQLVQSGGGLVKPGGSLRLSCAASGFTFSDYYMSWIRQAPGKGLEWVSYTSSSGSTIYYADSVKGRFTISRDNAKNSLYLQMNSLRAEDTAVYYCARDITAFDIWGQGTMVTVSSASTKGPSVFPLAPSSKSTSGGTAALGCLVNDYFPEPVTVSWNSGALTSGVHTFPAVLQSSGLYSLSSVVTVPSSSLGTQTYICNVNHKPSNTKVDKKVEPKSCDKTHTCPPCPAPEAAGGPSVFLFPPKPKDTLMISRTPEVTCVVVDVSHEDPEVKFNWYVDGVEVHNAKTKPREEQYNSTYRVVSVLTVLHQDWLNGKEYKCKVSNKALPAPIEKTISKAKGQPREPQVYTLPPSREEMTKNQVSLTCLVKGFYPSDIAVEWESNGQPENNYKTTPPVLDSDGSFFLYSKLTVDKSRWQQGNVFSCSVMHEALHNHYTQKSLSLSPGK
light: B1 light
notes: human IgG1 LALA isotype
